The supplement of paper PMC9233669
This sample holds only a part of the variants without activity.

Legend:
biotinyl-Ile-oxazolone = experiment: self-aminoacylation, catalytic enhancement (BIO) (fold over background); higher = more active; k-Seq, kA / k0A0; sequences stand for … in GGGAAUGGAUCCACAUCUACGAAUUC…UUCACUGCAGACUUGACGAAGCUG
Outline: (§1)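 The uncatalyzed rate is the low-activity peak of a bimodal Gaussian fit, and catalytic enhancement is median kA divided by it. The kA values came from pseudo-first-order fits, with 1000 bootstraps, of per-sequence fraction reacted measured by streptavidin capture, triplicate qPCR and Illumina sequencing. Mutagenized RNA pools with a 21-nt variable region (0.43 μM) were reacted with each biotinyl-aminoacyl-oxazolone at 2–1250 μM in 50 μL HEPES/NaCl/KCl/MgCl2/CaCl2 buffer with 5% acetonitrile, pH 6.9–7.0, for 90 minutes at room temperature.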

biotinyl-Trp-oxazolone = experiment: self-aminoacylation, catalytic enhancement (BWO) (fold over background); higher = more active; k-Seq, kA / k0A0; sequences stand for … in GGGAAUGGAUCCACAUCUACGAAUUC…UUCACUGCAGACUUGACGAAGCUG
Outline: as §1

biotinyl-Phe-oxazolone = experiment: self-aminoacylation, catalytic enhancement (BFO) (fold over background); higher = more active; k-Seq, kA / k0A0; sequences stand for … in GGGAAUGGAUCCACAUCUACGAAUUC…UUCACUGCAGACUUGACGAAGCUG
Outline: as §1

biotinyl-Val-oxazolone = experiment: self-aminoacylation, catalytic enhancement (BVO) (fold over background); higher = more active; k-Seq, kA / k0A0; sequences stand for … in GGGAAUGGAUCCACAUCUACGAAUUC…UUCACUGCAGACUUGACGAAGCUG
Outline: as §1

biotinyl-Leu-oxazolone = experiment: self-aminoacylation, catalytic enhancement (BLO) (fold over background); higher = more active; k-Seq, kA / k0A0; sequences stand for … in GGGAAUGGAUCCACAUCUACGAAUUC…UUCACUGCAGACUUGACGAAGCUG
Outline: as §1

biotinyl-Met-oxazolone = experiment: self-aminoacylation, catalytic enhancement (BMO) (fold over background); higher = more active; k-Seq, kA / k0A0; sequences stand for … in GGGAAUGGAUCCACAUCUACGAAUUC…UUCACUGCAGACUUGACGAAGCUG
Outline: as §1

Sequence	self-aminoacylation (biotinyl-Ile-oxazolone)	self-aminoacylation (biotinyl-Trp-oxazolone)	self-aminoacylation (biotinyl-Phe-oxazolone)	self-aminoacylation (biotinyl-Val-oxazolone)	self-aminoacylation (biotinyl-Leu-oxazolone)	self-aminoacylation (biotinyl-Met-oxazolone)
AUCACCCUGGUCGUCGAGUGA [Fam2.1 aminoacylation ribozyme variant]	1.24	1.41	5.78	1.31	2.67	1.39
AAGUUUCCUAAUUGUCGCAAG [Fam3.1 aminoacylation ribozyme variant]	1.47	0.994	0.96	1.38	1.88	1.14
GUUACCCUCGUCAUCGAGUGA [Fam2.1 aminoacylation ribozyme variant]	2.45	4.33	11	2.31	3.7	4.14
AUUACCCUGGUCAUCGAGUGG [Fam2.1 aminoacylation ribozyme variant]	16.3	52.1	361	18.5	55.4	56.9
AAGUUUGCUAAUAGUGGCUAG [Fam3.1 aminoacylation ribozyme variant]	0.811	0.748	1.52	0.862	0.65	0.777
GCGCACUUCAAGCAAUCGGUC [Fam1B.1 aminoacylation ribozyme variant]	2.12	29.6	41.1	2.2	2.65	2.04
CUGCUUUAAACAAUCGGUCUG [Fam1A.1 aminoacylation ribozyme variant]	0.889	1.87	2	0.79	0.754	0.879
AUUACCCUGGUGUUCGAGUGA [Fam2.1 aminoacylation ribozyme variant]	2.73	7.61	45.5	3.21	6.71	5.65
AAGUUUGCUAGUAGUUGCAAG [Fam3.1 aminoacylation ribozyme variant]	0.985	1.1	0.949	0.737	0.791	1.04
CUAGUUCAAACGAUCGGUCUG [Fam1A.1 aminoacylation ribozyme variant]	0.782	0.58	0.559	0.794	0.844	0.812
CUACUUCAAACUACCGGUCUG [Fam1A.1 aminoacylation ribozyme variant]	1.1	0.846	0.75	0.832	0.868	0.809
AUUCACCUCGGUUAUCGGGUG [Fam2.2 aminoacylation ribozyme variant]	4.48	7.82	41.1	4.58	7.66	5.58
GCGUUUGCUAAUAGUCGCAAG [Fam3.1 aminoacylation ribozyme variant]	2.09	4.24	4.9	2.05	2.65	2.34
AUUCAUCUAGGUCAUCGGGCG [Fam2.2 aminoacylation ribozyme variant]	2.58	2.66	14.7	2.71	3.27	3.33
ACUACCCUGGUCAUCGAGUUA [Fam2.1 aminoacylation ribozyme variant]	2.05	3.55	8.46	2.38	5.11	5.07
AAUCACCUAUGUCAUCGGGUG [Fam2.2 aminoacylation ribozyme variant]	3.28	6.14	23.4	3.29	4.9	4.23
AAGUUUGCUAAUAGCCGCACG [Fam3.1 aminoacylation ribozyme variant]	1.31	2.52	1.41	1.21	1.32	1.08
AUUCACCCAGGUCAUCGGGUC [Fam2.2 aminoacylation ribozyme variant]	1.14	1.39	6.42	1.88	1.92	1.5
CCACACUUCAUGCAAUCGGUA [Fam1B.1 aminoacylation ribozyme variant]	0.681	0.458	0.533	0.733	0.811	0.769
AUUACCCUGGUCUUCGAGUGG [Fam2.1 aminoacylation ribozyme variant]	0.992	0.855	4.91	1.07	1.69	1.34
CCACACUUUAAACAAUCGGUC [Fam1B.1 aminoacylation ribozyme variant]	0.718	1.3	2.02	0.825	0.733	0.633
UUUCACCUAGGUCAUUGGGUG [Fam2.2 aminoacylation ribozyme variant]	2.59	3.77	17	2.66	2.57	2.51
CCACACUUCAAGGACUCGGUC [Fam1B.1 aminoacylation ribozyme variant]	1.02	1.13	1.05	1.24	1.23	1.03
AAGUUAGCUAAUAAUCGCAAG [Fam3.1 aminoacylation ribozyme variant]	1.77	1.12	2	1.26	1.38	1.3
CCACACUUCACGCAAUCAGUC [Fam1B.1 aminoacylation ribozyme variant]	0.823	0.962	0.704	0.731	0.673	0.662
